T1: human CD70 expressed on parental (WT) Jurkat cells (human, UniProt P32970 1-193)
T1 sequence: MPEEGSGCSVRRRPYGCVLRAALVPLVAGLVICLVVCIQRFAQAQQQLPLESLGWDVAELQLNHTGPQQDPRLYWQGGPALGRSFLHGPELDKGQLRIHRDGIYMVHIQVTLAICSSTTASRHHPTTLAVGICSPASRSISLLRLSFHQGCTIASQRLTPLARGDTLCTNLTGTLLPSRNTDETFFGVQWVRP

T2: recombinant biotinylated human CD70 protein (human) (UniProt P32970)
T2 sequence (chain, biotinylated (site not stated)): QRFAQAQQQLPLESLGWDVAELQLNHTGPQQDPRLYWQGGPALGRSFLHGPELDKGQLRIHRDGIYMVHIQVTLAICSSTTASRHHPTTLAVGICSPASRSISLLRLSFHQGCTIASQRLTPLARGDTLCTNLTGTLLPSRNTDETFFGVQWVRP

T3: recombinant biotinylated human CD70 protein (human, UniProt P32970 39-193, biotinylated (site not stated))
T3 construct: also called recombinant biotinylated hCD70 protein
T3 sequence: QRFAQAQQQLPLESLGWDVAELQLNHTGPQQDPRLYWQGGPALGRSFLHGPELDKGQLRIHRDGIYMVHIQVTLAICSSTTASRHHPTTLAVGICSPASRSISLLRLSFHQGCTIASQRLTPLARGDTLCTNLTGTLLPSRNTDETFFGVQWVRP


Key:
[1] = target: T1, human CD70 expressed on parental (WT) …; assay: cell-based or functional assay
[2] = target: T2, recombinant biotinylated human CD70 protein (human); assay: flow cytometry: CAR-transduced Jurkat cells incubated with recombinant biotinylated human CD70, streptavidin-PE; percent of cells binding
[3] = target: T3, recombinant biotinylated human CD70 …; assay: as above
Procedure: On Day 5, transduced cells were stained with human anti-CD69 antibody conjugated to PE-Cy7 and acquired on a flow cytometer to obtain percentage of CD69+ population for each CAR. […] Activation ratios (WT activation/KO activation) and protein binding were used to rank CARs.
Activation ratio and protein binding of hybridoma CARs were determined in the Jurkat screen and used for in vitro characterization of CARs. Activation ratio was determined by calculating the ratio of the percentage of CD69 expression on WT Jurkat cells transduced with CD70 CAR (WT) to that on CD70 knockout Jurkat cells transduced with CD70 CAR (KO). A higher activation ratio indicates target-dependent activation. […] Protein binding values indicate the percentage of CD3+ CAR T cells that bind to human CD70 protein.

Binder | Activation ratio (WT/KO) [1] | Protein binding (%) [2] | Protein binding (%) [3]
72C2 CD70-specific CAR (other) QVQLVQSGAEVKKPGSSVKVSCEASGGTFITYAISWVRQAPGQGLEWMGGIIPFFGTANYAQKFQGRVTITADKSTSTASMELRSLRSEDTAMYYCAQWELFFFDFWGQGTPVTVSSGGGGSGGGGSGGGGSGGGGSEIVMTQSPDTLSVSPGERAILSCRASQSVSSNLAWYQQKPGQAPRLLIYSASTRASGIPARFSGSGSGTEFTLSISSLQSEDFAVYYCQQYDNWPPLTFGGGTKVEIKTTTPAPRPPTPAPTIASQPLSLRPEACRPAAGGAVHTRGLDFACDIYIWAPLAGTCGVLLLSLVITLYCKRGRKKLLYIFKQPFMRPVQTTQEEDGCSCRFPEEEEGGCELRVKFSRSADAPAYQQGQNQLYNELNLGRREEYDVLDKRRGRDPEMGGKPRRKNPQEGLYNELQKDKMAEAYSEIGMKGERRRGKGHDGLYQGLSTATKDTYDALHMQALPPR | 6.18 | 0.09% | 
4F11 CD70-specific CAR (other, Chimeric antigen receptor on transduced Jurkat cells; the signal peptide is left out) QVTLKESGPVLVKPTETLTLTCTVSGFSLSNARMGVTWIRQPPGKALEWLAHIFSNDEKSYSTSLKSRLTISKDTSKTQVVLTMTNMDPVDTATYYCARIRDYYDISSYYDYWGQGTLVSVSSGGGGSGGGGSGGGGSGGGGSDIQMTQSPSAMSASVGDRVTITCRASQDISNYLAWFQQKPGKVPKRLIYAASSLQSGVPSRFSGSGSGTEFTLTISSLLPEDFATYYCLQLNSFPFTFGGGTKVEINTTTPAPRPPTPAPTIASQPLSLRPEACRPAAGGAVHTRGLDFACDIYIWAPLAGTCGVLLLSLVITLYCKRGRKKLLYIFKQPFMRPVQTTQEEDGCSCRFPEEEEGGCELRVKFSRSADAPAYQQGQNQLYNELNLGRREEYDVLDKRRGRDPEMGGKPRRKNPQEGLYNELQKDKMAEAYSEIGMKGERRRGKGHDGLYQGLSTATKDTYDALHMQALPPR | 11.9 |  | 47.1%
40E3 CD70-specific CAR (other) QVQLQESGPGLVKPSETLSLTCTVSGGSISSYYWNWIRQPPGKGLEWIGYIYYSGSTNYNPSLKSRVTISVDTSKNQFSLKLRSVTAADTAVYYCARDIRTWGQGTLVTVSSGGGGSGGGGSGGGGSGGGGSDIQMTQSPSSLSASVGDRVTITCRASQGISNYLAWFQQKPGKAPKSLIYAASSLQSGVPSKFSGSGSGTDFTLTISSLQPEDFATYYCQQYNSYPLTFGGGTKVEIKTTTPAPRPPTPAPTIASQPLSLRPEACRPAAGGAVHTRGLDFACDIYIWAPLAGTCGVLLLSLVITLYCKRGRKKLLYIFKQPFMRPVQTTQEEDGCSCRFPEEEEGGCELRVKFSRSADAPAYQQGQNQLYNELNLGRREEYDVLDKRRGRDPEMGGKPRRKNPQEGLYNELQKDKMAEAYSEIGMKGERRRGKGHDGLYQGLSTATKDTYDALHMQALPPR | 2.09 |  | 
10H10 CD70-specific CAR (other, Chimeric antigen receptor on transduced Jurkat cells; the signal peptide is left out) EVQLVESGGGLVQPGGSLRLSCAVSGFTFSNHNIHWVRQAPGKGLEWISYISRSSSTIYYADSVKGRFTISRDNAKNSLYLQMNSLRDEDTAVYYCARDHAQWYGMDVWGQGTTVTVSSGGGGSGGGGSGGGGSGGGGSDIQMTQSPSSVSASVGDRVTITCRASQGISSWLAWYQQKPGKAPKVLIYAASSLQSGVPSRFSGSGSGTDFTLTISSLQPEDFATYYCQQAFSFPFTFGPGTKVDIKTTTPAPRPPTPAPTIASQPLSLRPEACRPAAGGAVHTRGLDFACDIYIWAPLAGTCGVLLLSLVITLYCKRGRKKLLYIFKQPFMRPVQTTQEEDGCSCRFPEEEEGGCELRVKFSRSADAPAYQQGQNQLYNELNLGRREEYDVLDKRRGRDPEMGGKPRRKNPQEGLYNELQKDKMAEAYSEIGMKGERRRGKGHDGLYQGLSTATKDTYDALHMQALPPR | 7.32 |  | 17.9%
45F11 CD70-specific CAR (other) QVQLRGSGPGLVKPSETLSLTCTVSDDSISVYYWSWIRQPAGKGLEWIGRVYSSGNINYNPSLESRVTMSVDTSKSRFSLNLSSVTAADTAVYYCARGLDAFDIWGQGTMVTVSSGGGGSGGGGSGGGGSGGGGSEIVMTQSPATLSMSLGERATLSCRASQSVSSSLAWYQQKPGQAPRLLIYGASTRATGIPARFGGSGSGTEFTLTISSLQSEDFAVYYCQQYINWPHFGGGTKVEIKTTTPAPRPPTPAPTIASQPLSLRPEACRPAAGGAVHTRGLDFACDIYIWAPLAGTCGVLLLSLVITLYCKRGRKKLLYIFKQPFMRPVQTTQEEDGCSCRFPEEEEGGCELRVKFSRSADAPAYQQGQNQLYNELNLGRREEYDVLDKRRGRDPEMGGKPRRKNPQEGLYNELQKDKMAEAYSEIGMKGERRRGKGHDGLYQGLSTATKDTYDALHMQALPPR | 6.67 | 1.29% | 
17G6 CD70-specific CAR (other, Chimeric antigen receptor on transduced Jurkat cells; the signal peptide is left out) EVQLVESGGGLVQPGGSLRLSCVASGFTFSSYWMSWVRQAPGKGLEWVASIKQDGSEKYYVDSVKGRFTISRDNAKNSVYLQMNSLRAEDTGVYYCAREGVNWGWRLYWHFDLWGRGTLVTVSSGGGGSGGGGSGGGGSGGGGSDIVMTQSPDSLAVSLGERATINCKSSQSVLYSYNNKNYVAWYQQKPGQPPNLLIFWASTRESGVPDRFSGSGSGTDFTLTISSLQAEDVAVYYCQQYYSTLTFGGGTKVEIKTTTPAPRPPTPAPTIASQPLSLRPEACRPAAGGAVHTRGLDFACDIYIWAPLAGTCGVLLLSLVITLYCKRGRKKLLYIFKQPFMRPVQTTQEEDGCSCRFPEEEEGGCELRVKFSRSADAPAYQQGQNQLYNELNLGRREEYDVLDKRRGRDPEMGGKPRRKNPQEGLYNELQKDKMAEAYSEIGMKGERRRGKGHDGLYQGLSTATKDTYDALHMQALPPR | 6.84 |  | 37.6%
42C3 CD70-specific CAR (other) EVQLVESGGGLVQPGGSLRLSCAASGFTFRNSWMSWVRQAPGKGLEWVANIKRDGSEKYYVDSVKGRFTISRDNAKNSLYLQMNSLRAEDTAVYYCARDQTGSFDYWGQGTLVTVSSGGGGSGGGGSGGGGSGGGGSDVVMTQSPLSLPVTLGQPASISCRSSQSLVYSDENTYLNWFQQRPGQSLRRLIYQVSNRDSGVPDRFSGSGSGTDFTLKISRVEAEDVGVYFCMQGTYWPPTFGGGTKVEIKTTTPAPRPPTPAPTIASQPLSLRPEACRPAAGGAVHTRGLDFACDIYIWAPLAGTCGVLLLSLVITLYCKRGRKKLLYIFKQPFMRPVQTTQEEDGCSCRFPEEEEGGCELRVKFSRSADAPAYQQGQNQLYNELNLGRREEYDVLDKRRGRDPEMGGKPRRKNPQEGLYNELQKDKMAEAYSEIGMKGERRRGKGHDGLYQGLSTATKDTYDALHMQALPPR | 5.25 | 1.48% | 
64F9 CD70-specific CAR (other, Chimeric antigen receptor on transduced Jurkat cells; the signal peptide is left out) EVQLLESGGGLVQPGESLRLSCEVSGFTFTSYAMSWVRQVPGKGLEWVSIISGVAFTTYYADSVKGRFTISRDHSKNTLYLQMNGLRAEDTAVYYCVKVDGEVYWGQGTLVTVSSGGGGSGGGGSGGGGSGGGGSDIQMTQSPSSLSASVGDRVTITCQASQDISNYLNWYQQKPGKAPKILIYGASNLETGVPSRFSGSGSGTDFTFAISSLQPEDVATYYCQQYDNFPITFGQGTRLEIKTTTPAPRPPTPAPTIASQPLSLRPEACRPAAGGAVHTRGLDFACDIYIWAPLAGTCGVLLLSLVITLYCKRGRKKLLYIFKQPFMRPVQTTQEEDGCSCRFPEEEEGGCELRVKFSRSADAPAYQQGQNQLYNELNLGRREEYDVLDKRRGRDPEMGGKPRRKNPQEGLYNELQKDKMAEAYSEIGMKGERRRGKGHDGLYQGLSTATKDTYDALHMQALPPR | 3.89 |  | 6.24%
